Test results as given in paper PMC5176304 (PLoS ONE, 2016).
Blank lines part the entries; values can stand above or below the molecule they belong to.

Experiments:
Experiment in all cases: SEC-MALS; size exclusion chromatography with multi-angle light scattering of Ni-purified uricases dialyzed into PBS; noncovalent molecular weight compared with the theoretical tetramer
[1] = biological target: Deinococcus geothermalis uricase (Deinococcus geothermalis)
[2] = biological target: Deinococcus radiodurans uricase (Deinococcus radiodurans)
[3] = biological target: Granulicella tundricola uricase (Granulicella tundricola)
[4] = biological target: Kyrpidia tusciae uricase (Kyrpidia tusciae)
[5] = biological target: Solibacter usitatus uricase (Solibacter usitatus)
[6] = biological target: Terriglobus saanensis uricase (Terriglobus saanensis)
[7] = biological target: the molecule itself

stoichiometry N [2]: 4
Molecule: Deinococcus radiodurans uricase (enzyme)

stoichiometry N [3]: 4
Molecule: Granulicella tundricola uricase (enzyme)

Continued, molecule first:

Molecule: Deinococcus geothermalis uricase (enzyme)
stoichiometry N [1]: 4

Molecule: Kyrpidia tusciae uricase (enzyme)
stoichiometry N [4]: 4

Molecule: Solibacter usitatus uricase (enzyme)
stoichiometry N [5]: 4

Molecule: Terriglobus saanensis uricase (enzyme)
stoichiometry N [6]: 4

B1: Arthrobacter globiformis uricase (C-terminally truncated by 11 amino acids, N-terminal His tag) (enzyme, UniProt D0VWQ1 1-291, looked up)
chain: MTATAETSTGTKVVLGQNQYGKAEVRLVKVTRNTARHEIQDLNVTSQLRGDFEAAHTAGDNAHVVATDTQKNTVYAFARDGFATTEEFLLRLGKHFTEGFDWVTGGRWAAQQFFWDRINDHDHAFSRNKSEVRTAVLEISGSEQAIVAGIEGLTVLKSTGSEFHGFPRDKYTTLQETTDRILATDVSARWRYNTVEVDFDAVYASVRGLLLKAFAETHSLALQQTMYEMGRAVIETHPEIDEIKMSLPNKHHFLVDLQPFGQDNPNEVFYAADRPYGLIEATIQREGSRAD
notes: Synthetic gene in a modified pET15b-based vector; also called RGD-containing Arthrobacter globiformis uricase; uricase containing RGD
stoichiometry N [7]: 4
